{
  "source": "patent US20230183289A1",
  "about": "(ANPEP, published 2023)",
  "data": [
    {"biological_target": "elastase (type I: derived from porcine pancreas, Sigma Aldrich) (porcine, UniProt P00772 27-266)", "sequence (P00772 27-266 limits assumed)": "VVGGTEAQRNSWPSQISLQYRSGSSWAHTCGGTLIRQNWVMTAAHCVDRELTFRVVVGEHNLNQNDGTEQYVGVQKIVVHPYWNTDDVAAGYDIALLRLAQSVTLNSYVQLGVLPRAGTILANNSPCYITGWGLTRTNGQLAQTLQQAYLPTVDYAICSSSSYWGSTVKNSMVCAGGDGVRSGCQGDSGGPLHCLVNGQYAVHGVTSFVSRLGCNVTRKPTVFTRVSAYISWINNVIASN", "experiment": "cell-based or functional assay", "units": {"Elastase Inhibition Rate (%)": "%"}, "values": [
      {"binder": "EHQE", "note": "[Sample 29 tetrapeptide EHQE]", "Elastase Inhibition Rate (%)": 66.3},
      {"binder": "SSGG", "note": "[Sample 17 tetrapeptide SSGG]", "Elastase Inhibition Rate (%)": 77},
      {"binder": "FSSG", "note": "[Sample 22 tetrapeptide FSSG]", "Elastase Inhibition Rate (%)": 69.1},
      {"binder": "GYVS", "note": "[Sample 11 tetrapeptide GYVS]", "Elastase Inhibition Rate (%)": 78.5},
      {"binder": "QPSY", "note": "[Sample 15 tetrapeptide QPSY]", "Elastase Inhibition Rate (%)": 63.5},
      {"binder": "CFSS", "note": "[Sample 21 tetrapeptide CFSS]", "Elastase Inhibition Rate (%)": 47.4},
      {"binder": "GQDP", "note": "[Sample 34 tetrapeptide GQDP]", "Elastase Inhibition Rate (%)": 34.5},
      {"binder": "YGGG", "note": "[Sample 16 tetrapeptide YGGG]", "Elastase Inhibition Rate (%)": 67.1},
      {"binder": "GQLK", "note": "[Sample 27 tetrapeptide GQLK]", "Elastase Inhibition Rate (%)": 56},
      {"binder": "TKGE", "note": "[Sample 38 tetrapeptide TKGE]", "Elastase Inhibition Rate (%)": 59.3},
      {"binder": "LELP", "note": "[Sample 26 tetrapeptide LELP]", "Elastase Inhibition Rate (%)": 78.2},
      {"binder": "GQVS", "note": "[Sample 10 tetrapeptide GQVS]", "Elastase Inhibition Rate (%)": 33.9},
      {"binder": "ELPE", "note": "[Sample 24 tetrapeptide ELPE]", "Elastase Inhibition Rate (%)": 90.5},
      {"binder": "VKTS", "note": "[Sample 6 tetrapeptide VKTS]", "Elastase Inhibition Rate (%)": 66.3},
      {"binder": "SGGS", "note": "[Sample 8 tetrapeptide SGGS]", "Elastase Inhibition Rate (%)": 49.6},
      {"binder": "PPVD", "note": "[Sample 4 tetrapeptide PPVD]", "Elastase Inhibition Rate (%)": 72.5},
      {"binder": "QMGQ", "note": "[Sample 33 tetrapeptide QMGQ]", "Elastase Inhibition Rate (%)": 55.6},
      {"binder": "PEEQ", "note": "[Sample 32 tetrapeptide PEEQ]", "Elastase Inhibition Rate (%)": 64},
      {"binder": "TQTS", "note": "[Sample 13 tetrapeptide TQTS]", "Elastase Inhibition Rate (%)": 59},
      {"binder": "KTSG", "note": "[Sample 7 tetrapeptide KTSG]", "Elastase Inhibition Rate (%)": 44.5},
      {"binder": "LEVP", "note": "[Sample 31 tetrapeptide LEVP]", "Elastase Inhibition Rate (%)": 70.6},
      {"binder": "YLEQ", "note": "[Sample 36 tetrapeptide YLEQ]", "Elastase Inhibition Rate (%)": 72.3},
      {"binder": "CAPQ", "note": "[Sample 14 tetrapeptide CAPQ]", "Elastase Inhibition Rate (%)": 77.2},
      {"binder": "GGSG", "note": "[Sample 18 tetrapeptide GGSG]", "Elastase Inhibition Rate (%)": 104},
      {"binder": "PTPQ", "note": "[Sample 3 tetrapeptide PTPQ]", "Elastase Inhibition Rate (%)": 69.3},
      {"binder": "VEHQ", "note": "[Sample 40 tetrapeptide VEHQ]", "Elastase Inhibition Rate (%)": 55.7},
      {"binder": "MSYQ", "note": "[Sample 1 tetrapeptide MSYQ]", "Elastase Inhibition Rate (%)": 79.4},
      {"binder": "QQKQ", "note": "[Sample 41 tetrapeptide QQKQ]", "Elastase Inhibition Rate (%)": 72.3},
      {"binder": "SQQV", "note": "[Sample 12 tetrapeptide SQQV]", "Elastase Inhibition Rate (%)": 49.3},
      {"binder": "GQLE", "note": "[Sample 23 tetrapeptide GQLE]", "Elastase Inhibition Rate (%)": 73.2},
      {"binder": "GSSG", "note": "[Sample 19 tetrapeptide GSSG]", "Elastase Inhibition Rate (%)": 58.3},
      {"binder": "DCVK", "note": "[Sample 5 tetrapeptide DCVK]", "Elastase Inhibition Rate (%)": 118},
      {"binder": "GCFS", "note": "[Sample 20 tetrapeptide GCFS]", "Elastase Inhibition Rate (%)": 55.2},
      {"binder": "VLLP", "note": "[Sample 39 tetrapeptide VLLP]", "Elastase Inhibition Rate (%)": 60.7},
      {"binder": "EGQL", "note": "[Sample 30 tetrapeptide EGQL]", "Elastase Inhibition Rate (%)": 69.7},
      {"binder": "QLKY", "note": "[Sample 35 tetrapeptide QLKY]", "Elastase Inhibition Rate (%)": 60.5},
      {"binder": "QKKQ", "note": "[Sample 2 tetrapeptide QKKQ]", "Elastase Inhibition Rate (%)": 88.7},
      {"binder": "KHLE", "note": "[Sample 28 tetrapeptide KHLE]", "Elastase Inhibition Rate (%)": 79.3},
      {"binder": "GSGY", "note": "[Sample 9 tetrapeptide GSGY]", "Elastase Inhibition Rate (%)": 56.3},
      {"binder": "EVQW", "note": "[Sample 42 tetrapeptide EVQW]", "Elastase Inhibition Rate (%)": 49.5}
    ]}
  ]
}
